This is an account of results in patent US20100129806A1.

The target in assay [1] is myc-IP6K2 E138-9A mutant (glutamates 138 and 139 mutated) (human) (UniProt Q9UHH9). The assay can be described thus: cell-based or functional assay.
Assay [2] deals with myc-IP6K2 R133A mutant (human) (UniProt Q9UHH9). The assay can be described thus: cell-based or functional assay.
Sequence of myc-IP6K2 R133A mutant (human) (Q9UHH9 whole entry R133A): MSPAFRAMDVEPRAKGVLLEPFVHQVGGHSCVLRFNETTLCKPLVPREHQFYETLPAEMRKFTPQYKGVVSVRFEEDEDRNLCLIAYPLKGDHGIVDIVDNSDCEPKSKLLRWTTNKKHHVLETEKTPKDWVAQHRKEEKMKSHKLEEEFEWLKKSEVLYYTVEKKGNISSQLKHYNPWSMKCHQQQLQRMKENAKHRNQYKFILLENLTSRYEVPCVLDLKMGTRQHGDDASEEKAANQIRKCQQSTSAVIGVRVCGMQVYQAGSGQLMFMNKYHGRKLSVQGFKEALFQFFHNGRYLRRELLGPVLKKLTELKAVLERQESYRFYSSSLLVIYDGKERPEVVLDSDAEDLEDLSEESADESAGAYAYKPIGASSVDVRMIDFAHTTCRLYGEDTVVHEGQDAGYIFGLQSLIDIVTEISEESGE

Sequence of myc-IP6K2 E138-9A mutant (glutamates 138 and 139 mutated) (human) (Q9UHH9 other isoform, or with tags, fused parts or gaps mutant): as the sequence (Q9UHH9 whole entry R133A) above, with A133R, E138A, E139A counted along it

In assay [1], “endogenous HSP90 of human cells (HEK 293, HeLa), also used purified from HeLa cells (from UniProt P07900 2-732)” displayed an IP6K2 enzyme activity in vivo (fold of IP6K2wt) of 2 and a cell death of transfected HeLa cells (fold of wild type IP6K2) of 5. In assay [2], the IP6K2 enzyme activity in vivo (fold of IP6K2wt) amounted to 2 and the cell death of transfected HeLa cells (fold of wild type IP6K2) was 5.
